Results taken from patent US6825164 (TRUSTEES OF COLUMBIA UNIVERSITY IN THE CITY OF NEW YORK, dated 2004).
Ends that are not written are not given here.

B1: Mouse receptor for advanced glycation endproduct (RAGE) at the blood-brain barrier (receptor)
chain: GQNITARIGEPLVLSCKGAPKKPPQQLEWKLNTGRTEAWKVLSPQGGPWDSVAQILPNGSLLLPATGIVDEGTFRCRATNRRGKEVKSNYRVRVYQIPGKPEIVDPASELTASVPNKVGTCVSEGSYPAGTLSWHLDGKLLIPDGKETLVKEETRRHPETGLFTLRSELTVIPTQGGTTHPTFSCSFSLGLPRRRPLNTAPIQLRVREPGPPEGIQLLVEPEGGIVAPGGTVTLTCAISAQPPPQVHWIKDGAPLPLAPSPVLLLPEVGHADEGTYSCVATHPSHGPQESPPVSIRVTETGDEGPAEGSVGESGLGTLALALGILGGLGVVALLVGAILWRKRQPRREERKAPESQEDEEERAELNQSEEAEMPENGAGGP
notes: Endogenous RAGE on brain microvessels/endothelium of living mice (brain perfusion model); The mice in the experiments were of other strains; also called receptor for advanced glycosylation end products

Legend:
[1] = biological target: B1; experiment: in vivo brain perfusion with 125I-Aβ, capillary-depletion, binding to brain microvessels
Description: (§1) Injection of radioisotopes for transport studies. […] When the effects of different unlabeled molecular reagents were tested, those were injected 5 min prior to tracers injection and than simultaneously with radiolabled ligands. At predetermined times within 10 min mice were sacrificed by decapitation, and brain tissue prepared for radioactivity analysis. TCA and HPLC analysis as we described were used to determine molecular forms of uptake of radiolabeled Aβ by the BBB. Capillary-depletion technique was used to separate micravascular pellet from capillary-depleted brain to quantify in vivo binding to microvessels vs. transport into brain parenchyma, as we reported.

[2] = biological target: T1, Aβ1-40 human form (synthetic amyloid-beta peptide 1-40) (human, UniProt P05067 672-711, radioiodinated with Na[125I] for the transport and binding studies); experiment: as above
T1 construct: domain: Aβ1-40; Stock solutions in DMSO to keep it monomeric; Aβ numbering 1-40 counts on the Aβ peptide, not on APP; also called human Aβ1-40; Amyloid β1-40 peptide
Description: as §1

Row | binding result [1] | binding result [2] | Binder
1 | binds |  | DAEFGHDSGFEVRHQKLVFFAEDVGSNKGAIIGLMVGGVV (peptide, UniProt P12023 672-711, looked up, also: radioiodinated with Na[125I], position not given here, domain: Aβ1-40; also called mouse Aβ1-40; murine Aβ1-40) [Aβ1-40 murine form (synthetic amyloid-beta peptide 1-40)]
2 |  | binds | B1
